The record followed here is publication PMC9294000, “Structural basis for the simultaneous recognition of NEMO and acceptor ubiquitin by the HOIP NZF1 domain” (Scientific Reports, 2022).

The term stoichiometry N denotes the number of molecules, sites or subunits per partner or assembly. A word on the Kd: it is the concentration at which binding is half-saturated. Higher therefore signals weaker binding.

Data set [1] deals with T1, human HOIP NZF1 (hHOIP NZF1, aa. 350–379) (human, UniProt Q96EP0 350-379).
T1 construct: HOIP, human, NZF1 domain, residues 350-379; Cloned into pGEX-6p-1; also called Npl4 zinc finger 1 domain of HOIP; source: E. coli BL21 (DE3), purified (Glutathione Sepharose 4B, on-column PreScission cleavage, Superdex 75); not shown: GST, N-terminal, cleaved
T1 chain (looked up): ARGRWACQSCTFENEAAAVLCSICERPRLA
In words: crystal structure; hHOIP NZF1, hNEMO and linear di-ubiquitin purified separately, mixed in an equimolar ratio; sitting drops, 0.1 M Tris-HCl pH 8.5, 22% v/v PEG Smear Broad; 4.2 Å; heteropentameric complex. The note with it: both partners purified.

In the next data set the target is T2, linear diubiquitin (UniProt P0CG48 1-76; P0CG48 1-76).
T2 construct: ubiquitin, the N-terminal (distal) unit of the head-to-tail chain; its C-terminal Gly is joined to Met1 of the next ubiquitin; ubiquitin, the C-terminal (proximal) unit of the head-to-tail chain, residues 1-76 (Leu73-Gly76 not visible in the map); Two ubiquitins on one chain, expressed from pGEX-4T-1; also called linear diubiquitin chain; source: E. coli, purified (Glutathione Sepharose 4B, …)
The data set is described as above. Particulars: both partners purified.

Data set [2] concerns the molecule itself. The description is as above.
Data set [3] concerns the target T3, mouse NEMO (mNEMO, a.a. 250–339, corresponding to hNEMO 257–346) (mouse, UniProt O88522 250-339).
T3 construct: NEMO (IKKγ), mouse, residues 250-339; Cloned into pET-28a downstream of the 6xHis tag; source: E. coli BL21 (DE3), purified (Talon beads, on-column thrombin cleavage, size-exclusion chromatography); not shown: His6, N-terminal, cleaved
Kind of data set: SPR; Biacore S200; GST-HOIP NZF1 held on anti-GST antibodies amine-coupled to a CM5 chip, GST as control; analytes in 10 mM HEPES pH 7.4, 150 mM NaCl, 0.005% P20; mono-ubiquitin 288.0-1.1 µM, mNEMO 100.0-0.4 µM; equilibrium KD; duplicate. Particulars: both partners purified. Background: Surface plasmon resonance follows binding to a sensor surface in real time, without labels.

Another data set concerns the target T4, mono-ubiquitin (UniProt P0CG48 1-76).
T4 construct: ubiquitin (mono-ubiquitin); The methods describe neither a plasmid nor a supplier for the mono-ubiquitin
The description is as above. The note with it: both partners purified.

T3 sequence (O88522 250-339): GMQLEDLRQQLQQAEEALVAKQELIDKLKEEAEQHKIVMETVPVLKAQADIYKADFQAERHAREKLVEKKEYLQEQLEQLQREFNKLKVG

B1: human NEMO (hNEMO, aa. 257–346) (domain or fragment, UniProt Q9Y6K9 257-346, looked up)
chain: GMQLEDLKQQLQQAEEALVAKQEVIDKLKEEAEQHKIVMETVPVLKAQADIYKADFQAERQAREKLAEKKELLQEQLEQLQREYSKLKAS
notes: NEMO (IKKγ), human, residues 257-346 (CoZi region with the UBAN domain); Coiled-coil homodimer in the crystal; Cloned into pGEX-6p-1; also called NEMO CoZi; NEMO coiled-coil 2/zinc finger (CoZi); source: E. coli BL21 (DE3), purified (Glutathione Sepharose 4B, on-column PreScission cleavage, Superdex 75); not shown: GST, N-terminal, cleaved
B1: the “stoichiometry N” value in data set [1] turned out to be 2 NEMO chains per NZF1; in data set [2], 2. Moreover, in the data set with linear diubiquitin, the binding result is reported as “binds”.

B2: GST-HOIP NZF1(a.a. 350–379) (domain or fragment, human, UniProt Q96EP0 350-379, looked up)
chain: ARGRWACQSCTFENEAAAVLCSICERPRLA
notes: HOIP, human, NZF1 domain, residues 350-379; Held on the SPR chip by anti-GST antibodies; how the uncleaved fusion was purified is not described; source: E. coli BL21 (DE3), expressed as GST-fusion protein; not shown: GST, N-terminal, kept
In the case of B2, the Kd in data set [3] came to 86.7 µM; in the data set with mono-ubiquitin, 135 µM.
